Assay results: patent publication US20250011468A1 (Novo Nordisk, published 2025)

Target: human plasma-derived FIXa (Haematologic Technologies Inc) (human, UniProt P00740 47-191; P00740 227-461)
Experiment: cell-based or functional assay

human plasma-derived FIXa (Haematologic Technologies Inc), sequence (P00740 47-191, chain 1 of 2): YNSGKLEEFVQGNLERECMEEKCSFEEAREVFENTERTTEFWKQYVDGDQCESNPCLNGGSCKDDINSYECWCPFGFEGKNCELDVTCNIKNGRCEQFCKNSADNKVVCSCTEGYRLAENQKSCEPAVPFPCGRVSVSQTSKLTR
human plasma-derived FIXa (Haematologic Technologies Inc), sequence (P00740 227-461, chain 2 of 2): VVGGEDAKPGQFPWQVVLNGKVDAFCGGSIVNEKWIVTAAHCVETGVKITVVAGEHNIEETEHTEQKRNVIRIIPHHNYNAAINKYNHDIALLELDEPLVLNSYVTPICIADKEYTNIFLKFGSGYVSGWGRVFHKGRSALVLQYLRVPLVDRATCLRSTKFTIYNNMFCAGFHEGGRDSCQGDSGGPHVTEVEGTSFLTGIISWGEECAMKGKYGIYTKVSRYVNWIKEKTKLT

B1: mAb4-9578 (monovalent one-armed version of mAb1-7977) (antibody, V domains shown)
VH: EVQLVESGGGLVQPGRSLKLSCAASGFRFDDYAMHWVRQAPGKGLEWVSGISWRGAQIGYADSVKGRFTISRDNAKNSLYLQLNSLRAEDTALYYCAKSYGSGSFYNAFDSWGQGTLVTVSS
VL: DIQMTQSPSTLSASVGDRVTITCRASQKISSWLAWYQQKPGKAPKFLIYKASRLDRGVPSRFSGSGSGTEFSLTISSLQPDDFATYYCLEYRSYIRTFGQGTKVEIK
With B1 the “Stimulation index at 800 nM OA antibody” value was 850 fold.

B2: mAb5-1270 (monovalent one-armed version of mAb1-9016) (antibody, V domains shown)
VH: EVQLVESGGGLVQPGRSLKLSCAASGFTFDDYAMHWVRQVPGKGLEWVSGISWRGDIGGYVDSVKGRFTISRDNAKNSLYLQLNSLRAEDTALYYCVKSYGSGSFYNAFDSWGQGTLVTVSS
VL: DIQMTQSPSTLSASAGDRVTITCRASQSISSWLAWYQQKPGKAPKFLIYKASRLERGVPSRFSGSGSGTEFSLTISSLQPDDFATYYCLEYSSYIRTFGQGTKVEIK
With B2 the “Stimulation index at 1600 nM OA antibody” value was 4320 fold.

B3: mAb5-1263 (monovalent one-armed version of mAb1-9015) (antibody, V domains shown)
VH: EVQLVESGGGLVQPGRSLKLSCAASGFTFDDYAMHWVRQVPGKGLEWVSGISWRGDIKGYVDSVKGRFTISRDNAKNSLYLQLNSLRAEDTALYYCVKSYGSGSFYNAFDSWGQGTLVTVSS
VL: DIQMTQSPSTLSASAGDRVTITCRASQSISSWLAWYQQKPGKAPKFLIYKASRLERGVPSRFSGSGSGTEFSLTISSLQPDDFATYYCLEYSSYIRTFGQGTKVEIK
In the case of B3, the “Stimulation index at 1600 nM OA antibody” value is reported as 1330 fold.

B4: mAb5-0161 (monovalent one-armed version of mAb1-8785) (antibody, V domains shown)
VH: EVQLVESGGGLVQPGRSLKLSCAASGFTFHDYAMHWVRQVPGKGLEWVSGISWRGDIIGYVDSVKGRFTISRDNKKNSLYLQLNSLRAEDTALYYCVKSYGSGSFYNAFDSWGQGTLVTVSS
VL: DIQMTQSPSTLSASAGDRVTITCRASQSISSWLAWYQQKPGKAPKFLIYKASRLDRGVPSRFSGSGSGTEFSLTISSLQPDDFATYYCLEYSSYIRTFGQGTKVEIK
With B4 the “Stimulation index at 800 nM OA antibody” value was 621 fold.

B5: mAb5-0144 (monovalent one-armed version of mAb1-8780) (antibody, V domains shown)
VH: EVQLVESGGGLVQPGRSLKLSCAASGFTFHDYAMHWVRQVPGKGLEWVSGISWRGDIKGYVDSVKGRFTISRDNAKNSLYLQLNSLRAEDTALYYCVKSYGSGSFYNAFDSWGQGTLVTVSS
VL: DIQMTQSPSTLSASAGDRVTITCRASQSISSWLAWYQQKPGKAPKFLIYKASRLDRGVPSRFSGSGSGTEFSLTISSLQPDDFATYYCLEYSSYIRTFGQGTKVEIK
With B5 the “Stimulation index at 1600 nM OA antibody” value was 1650 fold.

B6: mAb5-0514 (monovalent one-armed version of mAb1-8543) (antibody, V domains shown)
VH: EVQLVESGGGLVQPGRSLKLSCAASKFRFDDYAMHWVRQVPGKGLEWVSGISWRGDIIGYVDSVKGRFTISRDNEKNSLYLQLNSLRAEDTALYYCVKSYGSGSFYNAFDSWGQGTLVTVSS
VL: DIQMTQSPSTLSASAGDRVTITCRASQSISSWLAWYQQKPGKAPKFLIYKASRLERDVPSRFSGSGSGTEFSLTISSLQPDDFATYYCLEYRSYIRTFGQGTKVEIK
B6 was tested, and the “Stimulation index at 1600 nM OA antibody” value was 283 fold.

B7: mAb5-1695 (monovalent one-armed version of mAb1-9134) (antibody, V domains shown)
VH: EVQLVESGGGLVQPGRSLKLSCAASGFTFDDYAMHWVRQVPGKGLEWVSGISWKGDIIGYVDSVKGRFTISRDNAKNSLYLQLNSLRAEDTALYYCVKSYGSGSFYNAFDSWGQGTLVTVSS
VL: DIQMTQSPSTLSASAGDRVTITCRASQSISEWLAWYQQKPGKAPKFLIYKASRLDRGVPSRFSGSGSGTEFSLTISSLQPDDFATYYCLEYSSYIRTFGQGTKVEIK
For B7, the “Stimulation index at 1600 nM OA antibody” value was 320 fold.

B8: mAb5-0152 (monovalent one-armed version of mAb1-8782) (antibody, V domains shown)
VH: EVQLVESGGGLVQPGRSLKLSCAASGFTFHDYAMHWVRQVPGKGLEWVSGISWRGDITGYVDSVKGRFTISRDNAKNSLYLQLNSLRAEDTALYYCVKSYGSGSFYNAFDSWGQGTLVTVSS
VL: DIQMTQSPSTLSASAGDRVTITCRASQSISSWLAWYQQKPGKAPKFLIYKASRLDRGVPSRFSGSGSGTEFSLTISSLQPDDFATYYCLEYSSYIRTFGQGTKVEIK
In the case of B8, the “Stimulation index at 1600 nM OA antibody” value is reported as 417 fold.

B9: mAb5-0908 (monovalent one-armed version of mAb1-8467) (antibody, V domains shown)
VH: EVQLVESGGGLVQPGRSLKLSCAASKFRFDDYAMHWVRQVPGKGLEWVSGISWRGDIIGYVDSVKGRFTISRDNEKNSLYLQLNSLRAEDTALYYCVKSYGSGSFYNAFDSWGQGTLVTVSS
VL: DIQMTQSPSTLSASAGDRVTITCRASKSISSWLAWYQQKPGKAPKFLIYKASRLERGVPSRFSGSGSGTEFSLTISSLQPDDFATYYCLEYSSYIRTFGQGTKVEIK
B9 was tested, and the “Stimulation index at 1600 nM OA antibody” value was 1020 fold.

B10: mAb5-1257 (monovalent one-armed version of mAb1-9002) (antibody, V domains shown)
VH: EVQLVESGGGLVQPGRSLKLSCAASKFTFDDYAMHWVRQVPGKGLEWVSGISWRGDIIGYVDSVKGRFTISRDNAKNSLYLQLNSLRAEDTALYYCVKSYGSGSFYNAFDSWGQGTLVTVSS
VL: DIQMTQSPSTLSASAGDRVTITCRASQSISSWLAWYQQKPGKAPKFLIYKASRLERGVPSRFSGSGSGTEFSLTISSLQPDDFATYYCLEYSSYIRTFGQGTKVEIK
With B10 the “Stimulation index at 800 nM OA antibody” value was 567 fold.

B11: mAb5-0900 (monovalent one-armed version of mAb1-8459) (antibody, V domains shown)
VH: EVQLVESGGGLVQPGRSLKLSCAASGFTFDDYAMHWVRQVPGKGLEWVSGISWRGDIIGYVKSVKGRFTISRDNAKNSLYLQLNSLRIEDTALYYCVKSYGSGSFYNAFDSWGQGTLVTVSS
VL: DIQMTQSPSTLSASAGDRVTITCRASKSISSWLAWYQQKPGKAPKFLIYKAERLERGVPSRFSGSGSGTEFSLTISSLQPDDFATYYCLEYSSYIRTFGQGTKVEIK
In the case of B11, the “Stimulation index at 1600 nM OA antibody” value is reported as 799 fold.

B12: mAb5-0658 (monovalent one-armed version of mAb1-8679) (antibody, V domains shown)
VH: EVQLVESGGGLVQPGRSLKLSCAASGFTFDDYAMHWVRQVPGKGLEWVSGISWRGDIIGYVKSVKGRFTISRDNAKNSLYLQLNSLRAEDTALYYCVKSYGSGSFYNAFDSWGQGTLVTVSS
VL: DIQMTQSPSTLSASVGDRVTITCRASKSIKSWLAWYQQKPGKAPKFLIYKASRLERGVPSRFSGSGSGTEFSLTISSLQPDDFATYYCLEYSSYIRTFGQGTKVEIK
In the case of B12, the “Stimulation index at 1600 nM OA antibody” value is reported as 918 fold.

B13: mAb5-2035 (monovalent one-armed version of mAb1-9285) (antibody, V domains shown)
VH: EVQLVESGGGLVQPGRSLKLSCAASGFTFDDYAMHWVRQVPGKGLEWVSGISWRGDIIGYVKSVKGRFTISRDNAKNSLYLQLNSLRIEDTALYYCVKSYGSGSFYNAFDSWGQGTLVTVSS
VL: DIQMTQSPSTLSASAGDRVTITCRASKSISSWLAWYQQKPGKAPKFLIYKASRLERGVPSRFSGSGSGTEFSLTISSLQPDDFATYYCLEYSSYIRTFGQGTKVEIK
For B13, the “Stimulation index at 800 nM OA antibody” value was 732 fold.

B14: mAb5-1528 (monovalent one-armed version of mAb1-9058) (antibody, V domains shown)
VH: EVQLVESGGGLVQPGRSLKLSCAASGFTFHDYAMHWVRQVPGKGLEWVSGISWRGDIIGYVDSVKGRFTISRDNAKNSLYLQLNSLRAEDTALYYCVKSYGSGSFYNAFDSWGQGTLVTVSS
VL: DIQMTQSPSTLSASAGDRVTISCRASQSISSWLAWYQQKPGKAPKFLIYKASRLDRGVPSRFSGSGSGTEFTLTISSLQPDDFATYYCLEYNSYIRTFGQGTKVEIK
B14 was tested, and the “Stimulation index at 1600 nM OA antibody” value was 531 fold.

B15: mAb4-3505 (monovalent one-armed version of mAb1-5797) (antibody, V domains shown)
VH: EVQLVQSGAEVKKPGESLRISCKGSGYRFTSYWIGWVRQMPGKGLEWMGMIDPTDSYTDYGPSFHGHVTISADKSISTAYLQWSSLKASDTAMYYCARMRIMSGAFDIWGQGTMVTVSS
VL: DIVMTQSPLSLPVTPGEPASISCRSSQSLLHSTWYNYLNWYLQKPGQSPQLLIYLGSRRASGVPDRFSGSGSGTDFTLKISRVEAEDVGVYYCMQVLHIPYTFGQGTKLEIK
B15 was tested, and the “Stimulation index at 474 nM OA antibody” value was 382 fold.

B16: mAb4-3486 (monovalent one-armed version of mAb1-5781) (antibody, V domains shown)
VH: EVQLVQSGAEVKKPGESLRISCKGSGYSFKPYWIGWVRQMPGKGLEWMGMIDPSDSYTDYGPSFRGHVTISADKSISTAYLQWSSLKASDTAMYYCARVRIRAGAFDIWGQGTMVTVSS
VL: DIVMTQSPLSLPVTPGEPASISCRSSQSLLHRTWYNYLNWYLQKPGQSPQLLIYLGRNRASGVPDRFSGSGSGTDFTLKISRVEAEDVGVYYCMQVLHIPYTFGQGTKLEIK
In the case of B16, the “Stimulation index at 564 nM OA antibody” value is reported as 1220 fold.

B17: mAb4-5375 (monovalent one-armed version of mAb1-6609) (antibody, V domains shown)
VH: EVQLVQSGAEVKKPGESLRISCKGSGYRFTPYWIGWVRQMPGKGLEWMGMIDPTDSYTDYGPSFRGHVTISADKSISTAYLQWSSLKASDTAMYYCARVRIRSGAFDIWGQGTMVTVSS
VL: DIVMTQSPLSLPVTPGEPASISCRSSQSLLHSTWYNYLNWYLQKPGQSPQLLIYLGSNRASGVPDRFSGSGSGTDFTLKISRVEAEDVGVYYCMQALHIPYTFGQGTKLEIK
B17 was tested, and the “Stimulation index at 800 nM OA antibody” value was 94 fold.

B18: mAb4-3490 (monovalent one-armed version of mAb1-5783) (antibody, V domains shown)
VH: EVQLVQSGAEVKKPGESLRISCKGSGYSFRPYWIGWVRQMPGKGLEWMGMIDPSDSYTDYGPSFRGHVTISADKSISTAYLQWSSLKASDTAMYYCARVRIRAGAFDIWGQGTMVTVSS
VL: DIVMTQSPLSLPVTPGEPASISCRSSQSLLHRTWYNYLNWYLQKPGQSPQLLIYLGRNRASGVPDRFSGSGSGTDFTLKISRVEAEDVGVYYCMQVLHIPYTFGQGTKLEIK
For B18, the “Stimulation index at 264 nM OA antibody” value was 1040 fold.

B19: mAb4-3503 (monovalent one-armed version of mAb1-5796) (antibody, V domains shown)
VH: EVQLVQSGAEVKKPGESLRISCKGSGYSFRPYWIGWVRQMPGKGLEWMGMIDPSDSYTDYGPSFHGHVTISADKSISTAYLQWSSLKASDTAMYYCARVRIMSGAFDIWGQGTMVTVSS
VL: DIVMTQSPLSLPVTPGEPASISCRSSQSLLHSTWYNYLNWYLQKPGQSPQLLIYLGKNRASGVPDRFSGSGSGTDFTLKISRVEAEDVGVYYCMQVLHIPYTFGQGTKLEIK
For B19, the “Stimulation index at 900 nM OA antibody” value was 239 fold.

B20: mAb4-3461 (monovalent one-armed version of mAb1-5754) (antibody, V domains shown)
VH: EVQLVQSGAEVKKPGESLRISCKGSGYSFRPYWIGWVRQMPGKGLEWMGMIDPSDSYTDYGPSFEGHVTISADKSISTAYLQWSSLKASDTAMYYCARVRIRAGAFDIWGQGTMVTVSS
VL: DIVMTQSPLSLPVTPGEPASISCRSSQRLLHSTGYNYLNWYLQKPGQSPQLLIYLGKNRASGVPDRFSGSGSGTDFTLKISRVEAEDVGVYYCMQVLHIPYTFGQGTKLEIK
With B20 the “Stimulation index at 1478 nM OA antibody” value was 615 fold.

B21: mAb4-5368 (monovalent one-armed version of mAb1-6606) (antibody, V domains shown)
VH: EVQLVQSGAEVKKPGESLRISCKGSGYSFRPYWIGWVRQMPGKGLEWMGMIDPSDSYTDYGPSFEGHVTISADKSISTAYLQWSSLKASDTAMYYCARVRIRAGAFDIWGQGTMVTVSS
VL: DIVMTQSPLSLPVTPGEPASISCRSSQSLLHSTWYNYLNWYLQKPGQSPQLLIYLGSNRASGVPDRFSGSGSGTDFTLKISRVEAEDVGVYYCMQALHIPYTFGQGTKLEIK
With B21 the “Stimulation index at 800 nM OA antibody” value was 133 fold.
